Reference: the DeepSol protein solubility set

Assay: soluble on expression in E. coli; label from the status in PepcDB or PDB records

Row | Sequence | soluble on expression in E. coli
1 | MGSDKIHHHHHHMASPINESRIGYLYEAVRCGTVRAAADYLDVAPSAVSRQIALLEEELAIALVERNKRGVRPTEAGALLIEYFRQQRSHQGDLIAKLQEIRGLRRGTIAVVMGEGFASTMVSGPIKQYCEAYPEISITLDLCSTNEVMRRVSEDEAEIGLVFNPASDARIVSRVGSRQPMHAIVSPAFPLVGKVQSVTLRDMLPYPLALTHPEHGTRRLVDAAMLLEKVRLTPAITTNSATILKLFAKSNLGFTLLTPISIAAELAAGELVAIPVENRLLQSPEAHLVTRAGRQLSPAANRLLQRLTAQINQYAQYGSAS | not soluble
2 | MSSNENSDDVPEQRQIVRRSRVYNPRDPSSPEPPYDPYPPGIHAQAGCATRPISAHIVPQALIEPIRLHREEDELAGTSSCRPVPQCDFNLESDRWEEDQLENPQIKSQWKGSETRPVANFARRQQRVLRTDWKHVDVQITVWEELKKVLEAAEIVDVTLNMMKTLNPDTKAMWLLKFHTTSLTEYLEDFESRAEYFNEMLLELDGIHPDLFTECSNYISQLKDVTHSRELQAVQVHLPKAVKNSDAQKVRFYLQLAGEAKKDIAVVLNNNKVKTLLIDNGFTL | not soluble
3 | MAQGNQQIDNQVLHHLRQKFPEVPEDVVCECVLQNKSDLAACCEYLTKVSPRFLYSEGSQSLTDLRNHMTQLNLGVSQNTHGAVQRDAVGMNGSRTLAPSVSDGPLNVPSALSEFYQPETPSVPTHTPASLSMESTRKPQPPQHLGLYQVGGKGHAPPQAPRFNPITVTLAPNTGRNTPTSLHIHGGPQSGLNSPNSIYIRPYVTQPGSTRQVQCRAQYSPTSQPAQQIYQITHPAAPQSSWSQHQTSHVYMPISSPTNTHTHTRFTCVCARVRMPVCLIHGNGR | not soluble
4 | MRYHIALVGRRNSGKSSLLNMLAGQQISIVSDIKGTTTDAVAKAYELQPLGPVTFYDTAGIDDEGTLGAMRVSATRRVLFRSDMALLVVDEQGLCPSDMALIDEIRQLQMPILMVFNKADICTPKAEDIAFCQNQSLPFIVVSAATGLAGKQLKQLMVELAPAEYKQEPLLAGDLYQAGDVILCVVPIDMAAPKGRLILPQVQILREALDRSAIAMVVKETELAQALSVVTPKLVISDAQAIKQVAAIVPDAVPLTTFSTLFARFKGDLAALATGADALDTLQDGDKVLISEACSHNVQEDDIGRVKLPRWINSYTGKQLEFVVTSGHDFPNDLEQYALVIHCGACMFNRNEMLRRIRECQRRQVPITNYGVAISKLQGVLPRVLTPFNRNPQQLEHHHHHH | soluble
5 | MKLSLVFLLFVAFAKSADTAPVDFNKIFVTFVEELMDAINQLILEQMGAIRPSTTPLQSIPPITATDAPTTADTTAEPTKAHETTVAQEATSEGAETHETTVGQDTTVRSGESQETTVSQGTTVSQENTVSQETTVSQDTTVSQETTVSQDTTVSQDTTVSQESTVSQETTVSQDTTVSQETSVSHETNVSPDTTVSQESTVSQDTTVSQETTLSQETTVSQETTVSQDTTVSQETTASQDTTVSQDTTVSQDTTVVPQETTVEATKASEATEENGTTAVTPGESDPCDTTEAPTGGSTVGESEPCDTTEASEPTGHTDQAETVTDPASQATASATIIGGVDQTGSTNLEATTEQICKHPTKDSEEEKTDENKDEKTTRAGTNVHRPEREDILK | not soluble
6 | MEVDTSSSSSSEDECDPSSPSTAYIHSASVRLSVGTEEAARTVADVIKIDKEPRRSGARREVCSEGEFVVIKIESKDPKSLSKSIANAVDMIDLSVKTIKLCENLGKSKENGLKRKLSNGSQA | not soluble
7 | MSLRSHFATQKDQWQTYTKEKKIKIGFDATFVPMGYEEKDGSYIGFDIDLANAVFKLYGIDVEWQAIDWDMKETELKNGTIDLIWNGYSVTDERKQSADFTEPYMVNEQVLVTKKSSGIDSVAGMAGKTLGAQAGSSGYDAFNASPKILKDVVANQKVVQYSTFTQALIDLNSGRIDGLLIDRVYANYYLEKSGVLDQYNVMPAGYEGESFAVGARKVDKTLIKKINQGFETLYKNGEFQKISNKWFGEDVATDQVKGKREGHHHHHH | soluble
8 | MSLQQQPPGTPKSTHGAWSVICDKPAGASEEQCALMQNVIADDRPEVGLSVVILKTADRKSRILRILAPLGVLLKDGMELYIDNNNIGRAYFTRCFSEGCYVEVDIDDELLKVLRAGKNAVFALRESVDQDRVGIPIELSGFAEGYDALPEGHHHHHH | not soluble
9 | MSLTTRVIALDLDGTLLTPKKTLLPSSIEALARAREAGYQLIIVTGRHHVAIHPFYQALALDTPAICCNGTYLYDYHAKTVLEADPMPVNKALQLIEMLNEHHIHGLMYVDDAMVYEHPTGHVIRTSNWAQTLPPEQRPTFTQVASLAETTQQVNAVWKFALTHDDLPQLQHFGKHVEHELGLECEWSWHDQVDIAHGGNSKGKRLTKWVEAQGWSMENVVAFGDNFNDISMLEAAGTGVAMGNADDAVKARANIVIGDNTTDSIAQFIYSHLIEGHHHHHH | not soluble
10 | MAHHHHHHMSSSVKDILLEGSTCSTDMKLNDFLRSKLGGRGVVDTNEKVAMEMFVQDPETFIQNERLLRIITASPSYQELERELDEMKILLEAINKLHDEDVFSLEQWRGYEGKDTVTPLARGKINGVLTHVLREERRWAEERAVREKQVELTLTTTIEDVLFRGRVRVKDMKLNDFITMEMEGRGILRANRNVLLKEFFKDPTRYIHDAGVLNEIQASDAYLMAERAVRDEMDMEKDLRKLYKNGVSNLFGWSVASAEIRASVRDITKSFLDAALEEARKPTTTIAPIKMEGLYESVYNARWHHVVEVPGGEGTGMEVKKGRPPQQWTYKKVGYCLERDDGAEQYGAARLRLMVLASDKGRAVLVGGD | not soluble
11 | MKANRWFGMAQPKSGKMNMNILHQEELIAQKKREIEARMEQKARQSHVPSPQPPHPGEIADAHNSCISNKFANDGSFLQQFLKLQKAQTSTDSAPRAPPSMPTPSSLKKPLVLSKRTGLGLSSPTGPVKNYSHAKQLPVAHRPSVFQSPDDDEEEDYEQWLEIKVSPPEGAETRRVIEKLARFVAEGGPELEKVAMEDYKDNPAFTFLHDKNSREFLYYRRKVAEIRKEAQKPQAATQKVSPPEDEEAKNLAEKLARFIADGGPEVETIALQNNRENQAFSFLYDPNSQGYRYYRQKLDEFRKAKAGSTGSFPAPAPNPSLRRKSAPEALSGAVPPITACPTPVAPAPAVNPTPSIPGKPTATAAVKRKRKSRWGPEEDKVEFHLLNWHRGT | soluble
12 | DLGTQFLKIGIVKPGIPMDIALNTESRRKTPNVVMIQDGHRTFADAAIGMQVRYPHLVHGQLNDLVGKSTQHPSFELFKRRNTFFEVDDAPKNASSINFKLGGESYTVEALTAMILANAKKFTEEYAQAAEIKDVVITVPVYFTPAERLAVERAAQMAGLTVLQLINDGTAAALSHGIFRRKEIGEKPQRLMVYDMGAAKTTATIVEFKLVKEKYEKQPKMTVLGVGFDRTLGGIEMTNRLRDHLIEMFEKNYKPKTKVNTNRRAMTKFSKEAERLKQVLSANAEHFAQIESAHEDIDAKLKVTREDFNHLISDMESRFGEPIEQALRMAQIPIDDIDQFVLMGAGTRVPKVQEIVQKTIGTKEIGKFLNTDEAVAMGALFQAAHLSKGFKVKPFNIEEKVIFPVEVHFVSKIRDEKTEEITGEKNVVKTLFAANSVYPTHPKTISLTSYSDDFSVALKYGKIESFTKQQVQEIGSLLDNLVDVEISGLSEALKNRSSEESEFKGVKVSFIVDASGIVRVRRAEALFEPKSGLVGSIASTISGLFSSKTEEGEPTTDDSTPQSTEEKTEEKESVKVEDSTPEPEPETPVNSTSEESPKTNETEKNASSGNATEVKEKKKELPSIVRLRITNKYPSAFVPNKYDVQEEKRRMEAFAEKERLASERAAVENELESFNFECSQYLEETEFTDYMADEEKTKLEDSVKRIRAWLEDDVTKDTPTKDFTDNLLELKNVVRSVKKRQEHDKAVPEKLKSLETLLETTFSLTTLGNNVDEEKALFKKEDRDGLKSKLDKLKIWVTDVRKHLDLKKKTDDFNFTGKDIDTKTKNLNREVDRFMKKMKKITTLDDLAKDGKIDIDTIVEEAEKKKAEQDKKKEKKSTKKANESKVENESEIKTEL | not soluble
13 | MSLSSQPRFIHLRTHTDFSMIDSIVKVKPLVKACAANEMVAMGLTDFTNFCGVVSFYSEMLSSGMKPIIGADVKVKSPLCGDEYFDLTLLAKNNEGYRNITLLLSKAYQRGYNDLPYIDQDWLIEHRDGVIILSGGTQGDVGKKLLKENVAEIESAVAFYQEFFADHFYLALSRTGRPNEERYIQAALKLAERCDLPLVATNDVMFLNTEDFEAHEIRVAIHDGYTLDDPKRPKCYTSQQYFRSEEDMCKLFADEGHHHHHH | soluble
14 | MAKYIEIANTLRTSISNHEYKNNDPFPDQQALSKKFSTSRMTIQKALNILKTEGLIYSKQGSGTFVSSNADLIEQTDLEINQYIGTTDLFGKTHKINSKIIKFTIRYPDKSEQNALRISKKDLIYDITRLRIVDEEPYVLEYTKMPVKVIPGISDDILKKSIYHYIKSDLNLKIGSAFRKIRADKPNLFDKKFLNCKNEDPILEITQTAFLNSDIPFEFSRVRYRYDKGNMVVFVKSSFER | not soluble
15 | FEDVVGQEHITKTLQNALLQKKFSHAYLFSGPRGTGKTSAAKIFAKAVNCEHAPVDEPCNECAACKGITNGSISDVIEIDAASNNGVDEIRDIRDKVKFAPSAVTYKVYIIDEVHMLSIGAFNALLKTLEEPPEHCIFILATTEPHKIPLTIISRCQRFDFKRITSQAIVGRMNKIVDAEQLQVEEGSLEIIASAADGGMRDALSLLDQAISFSGDILKVEDALLITGAVSQLYIGKLAKSLHDKNVSDALETLNELLQQGKDPAKLIEDMIFYFRDMLLYKTAPGLEGVLEKVKVDETFRELSEQIPAQALYEMIDILNKSHQEMKWTNHPRIFFEVAVVKICQTSHQSAADLPEVDMLMKKIQQLEQEVERLKTTGIKAAAESPKKEAPRVPKGGKSNYKAPVGRIHEILKEATRPDLDLLRNSWGKLLAHLKQQNKVSHAALLNDSEPVAAGSAAFVLKFKYEIHCKMVAEDNNGVRTNLEQILESMLGKRMDLIGVPEAQWGKIREEFLEDHQQANEGSNEPAEEDPLIAEAKKLVGADLIEIKD | not soluble
16 | MTEPDVAGAPASKPEPASTGAASAAQLSGYSRVLLKLGGEMFGGGQVGLDPDVVAQVARQIADVVRGGVQIAVVIGGGNFFRGAQLQQLGMERTRSDYMGMLGTVMNSLALQDFLEKEGIVTRVQTAITMGQVAEPYLPLRAVRHLEKGRVVIFGAGMGLPYFSTDTTAAQRALEIGADVVLMAKAVDGVFAEDPRVNPEAELLTAVSHREVLDRGLRVADATAFSLCMDNGMPILVFNLLTDGNIARAVRGEKIGTLVTT | soluble
17 | MGSDKIHHHHHHMPCMTLLRRAFAIPLLLMVSSGLALAERPAENQKIALQMYTLRSVSTLDEQFSMAHNAGFKAVELVGTHGISASEMKGLLGKYQLKAIAAHVQLGELKSNMAEVVAFNKAIGNRMIIVPWLNVEDRPNSAEGWQRFGTEMNDLGRELKKQGMQLAYHNHNFEMKKYRGKTALEIMLDAAEPENLMLEMDVAWVSLGGQDPARLLRQYKGRIYSIHAKDNTSIGIRDDEMNFAPPGEGILAWEEILPAAAKAGTQWFVAEHDLPKDPQAIISAAYQSLYEKLSKVKSK | not soluble
18 | GMSKLSLIQQLKQQKLSVGILSANWLQLNEEVTTLLENQINVLHFDIADGQFSSLFTVGAIGIKYFPTHCFKDVHLMVRNQLEVAKAVVANGANLVTLQLEQYHDFALTIEWLAKQKTTYANQVYPVLIGACLCPETPISELEPYLDQIDVIQLLTLDPRNGTKYPSELILDRVIQVEKRLGNRRVEKLINIDGSMTLELAKYFKQGTHQIDWLVSGSALFSGELKTNLKVWKSSIM | soluble
